From paper PMC4535357

Target: T1, SRSF2 (UniProt Q01130 1-221)
T1 sequence: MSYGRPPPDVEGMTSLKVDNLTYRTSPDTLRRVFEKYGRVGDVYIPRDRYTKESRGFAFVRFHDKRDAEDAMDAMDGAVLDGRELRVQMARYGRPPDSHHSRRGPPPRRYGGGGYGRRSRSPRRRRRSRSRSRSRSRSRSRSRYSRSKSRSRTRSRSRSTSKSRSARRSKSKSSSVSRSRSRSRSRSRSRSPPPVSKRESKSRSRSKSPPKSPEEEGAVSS
Experiment: EMSA

Binder: GCACGUAUUC (ssRNA) [Mut-SRSF2 RNA (CGUA)]
- binding result: no binding
